In FireProtDB (doi:10.1021/bi00005a026):

B1: Subtilisin-chymotrypsin inhibitor-2A, P01053 (parent)
chain: MSSVEKKPEGVNTGAGDRHNLKTEWPELVGKSVEEAKKVILQDKPEAQIIVLPVGTIVTMEYRIDRVRLFVDKLDNIAQVPRVG

Variants of: B1
Conditions: Hordeum vulgare, pH 6.3, Thermal, Fluorescence, phosphate 10 mM, reversible: yes, structure 2CI2, whole UniProt chain shown; for ddG of mutation (higher = less stable): 46.6 °C

Variant	ddG of mutation (higher = less stable) [kcal/mol]	Tm [°C]	change of melting temperature, mutant - wild type (higher = more stable) [°C]	unfolding enthalpy (van 't Hoff) [kcal/mol]
MSSVEKKPEGVNTGAGDRHNLKTEWPELVGKSVEEAAKVILQDKPEAQIIVLPVGTIVTMEYRIDRVRLFVDKLDNIAQVPRVG	0.49	34	-12.6	27.2
MSSVEKKPEGVNTGAGDRHNLKTEWPEAVGKSVEEAKKVILQDKPEAQIIVLPVGTIVTMEYRIDRVRLFVDKLDNIAQVPRVG	2.68	24.1	-22.5	34.6
MSSVEKKPEGVNTGAGDRHNLKTEWPELVGKSVEEAKKVILQDAPEAQIIVLPVGTIVTMEYRIDRVRLFVDKLDNIAQVPRVG		40.8	-5.8	24.6
MSSVEKKPEGVNTGAGDRHNLKTEWPELVGKSVEEAKKAILQDKPEAQIIVLPVGTIVTMEYRIDRVRLFVDKLDNIAQVPRVG	0.48	41.9	-4.7	30
MSSVEKKPEGVNTGAGDRHNLKTEWPELVGKSVEEAKKVILQDKPEAQIIVLPAGTIVTMEYRIDRVRLFVDKLDNIAQVPRVG	0.63	43.8	-2.8	40.5
MSSVEKKPEGVNTGAGDRHNLKTEWPELVGKSVEEAKKVILQDKPEAQIIVLPTGTIVTMEYRIDRVRLFVDKLDNIAQVPRVG	1.03			
MSSVEKKPEGVNTGAGDRHNLKTEWPELVGKSVEEAKKVILQDKPEAQIIVLPVGTIVTMEYRIDRVRLFADKLDNIAQVPRVG	1.95	29.8	-16.8	33.5
MSSVEKKPEGVNTGAGDRHNLKTEWPELVGKAVEEAKKVILQDKPEAQIIVLPVGTIVTMEYRIDRVRLFVDKLDNIAQVPRVG	0.89	38.2	-8.4	35.4
MSSVEKKPEGVNTGAGDRHNLKTEWPELVGKSVEEAKKVILQDKPEAQIVVLPVGTIVTMEYRIDRVRLFVDKLDNIAQVPRVG	-0.08	48	1.4	50.9
MSSVEKKPEGVNTGAGDRHNLKTEWPELVGKSVEEAKKVILQDKPEAQIAVLPVGTIVTMEYRIDRVRLFVDKLDNIAQVPRVG	2.12			
MSSVEKKPEGVNTGAGDRHNLKTEWPELVGKAVAAAKKVILQDKPEAQIIVLPVGTIVTMEYRIDRVRLFVDKLDNIAQVPRVG	1.67			
MSSVEKKPEGVNTGAGDRHNLKTEWPELVGKSVNEAKKVILQDKPEAQIIVLPVGTIVTMEYRIDRVRLFVDKLDNIAQVPRVG	0.7	42.8	-3.8	36.1
MSSVEKKPEGVNTGAGDRHNLKTEWPELVGKSVEEAKKVVLQDKPEAQIIVLPVGTIVTMEYRIDRVRLFVDKLDNIAQVPRVG	1.3	31.8	-14.8	26.3
MSSVEKKPEGVNTGAGDRHNLKTEWPELVGKSVEEAKKVILQDKPEAQIIVAPVGTIVTMEYRIDRVRLFVDKLDNIAQVPRVG	2.37	37.5	-9.1	42.5
MSSVEKKPEGVNTGAGDRHNLKTEWPELVGKSVEEAKKVILQDKPEAQIIVVPVGTIVTMEYRIDRVRLFVDKLDNIAQVPRVG	0.5	46.1	-0.5	37.3
MSSVEKKPEGVNTGAGDRHNLKAEWPELVGKSVEEAKKVILQDKPEAQIIVLPVGTIVTMEYRIDRVRLFVDKLDNIAQVPRVG	0.85	43.7	-2.9	
MSSVEKKPEGVNTGAGDRHNLKTEWPELVGKSVEEAKKVILQDKPEAQIIVLPVGTIVTMEYRIDRVRLLVDKLDNIAQVPRVG	2.11	32.5	-14.1	27.5
MSSVEKKPEGVNTGAGDRHNLKTEWPELVGKSVEEAKKVILQDKPEAQIIVLPVGTIVTMEYRIDRVRLFVDKLDNVAQVPRVG	-0.19	47.7	1.1	34.6
MSSVEKKPEGVNTGAGDRHNLKTEWPELVGKSVAAAKKVILQDKPEAQIIVLPVGTIVTMEYRIDRVRLFVDKLDNIAQVPRVG	0.76			
MSSVEKKPEGVNTGAGDRHNLKTEWPELVGKSVEEAKKVILQDKPEAQVIVLPVGTIVTMEYRIDRVRLFVDKLDNIAQVPRVG	1.11	39.4	-7.2	27.8
MSSVEKKPEGVNTGAGDRHNLKTEWPELVGKSVEEAKAVILQDKPEAQIIVLPVGTIVTMEYRIDRVRLFVDKLDNIAQVPRVG	-0.23	41.4	-5.2	34.8
MSSVEKKPEGVNTGAGDRHNLKTEWPELVGKSVEEAKGVILQDKPEAQIIVLPVGTIVTMEYRIDRVRLFVDKLDNIAQVPRVG	0.97	35.8	-10.8	37.6
